# Assay results from patent publication US20250144178A1, “PHARMACEUTICAL COMPOSITION FOR CANCER TREATMENT COMPRISING FUSION PROTEIN INCLUDING IL-12 AND ANTI-FAP ANTIBODY AND ANTICANCER AGENT” (KANAPH THERAPEUTICS INC., priority 2022, published 2025).
# T1: recombinant mouse FAP (Mus musculus, UniProt P97321)
# T1 sequence (P97321 1-761): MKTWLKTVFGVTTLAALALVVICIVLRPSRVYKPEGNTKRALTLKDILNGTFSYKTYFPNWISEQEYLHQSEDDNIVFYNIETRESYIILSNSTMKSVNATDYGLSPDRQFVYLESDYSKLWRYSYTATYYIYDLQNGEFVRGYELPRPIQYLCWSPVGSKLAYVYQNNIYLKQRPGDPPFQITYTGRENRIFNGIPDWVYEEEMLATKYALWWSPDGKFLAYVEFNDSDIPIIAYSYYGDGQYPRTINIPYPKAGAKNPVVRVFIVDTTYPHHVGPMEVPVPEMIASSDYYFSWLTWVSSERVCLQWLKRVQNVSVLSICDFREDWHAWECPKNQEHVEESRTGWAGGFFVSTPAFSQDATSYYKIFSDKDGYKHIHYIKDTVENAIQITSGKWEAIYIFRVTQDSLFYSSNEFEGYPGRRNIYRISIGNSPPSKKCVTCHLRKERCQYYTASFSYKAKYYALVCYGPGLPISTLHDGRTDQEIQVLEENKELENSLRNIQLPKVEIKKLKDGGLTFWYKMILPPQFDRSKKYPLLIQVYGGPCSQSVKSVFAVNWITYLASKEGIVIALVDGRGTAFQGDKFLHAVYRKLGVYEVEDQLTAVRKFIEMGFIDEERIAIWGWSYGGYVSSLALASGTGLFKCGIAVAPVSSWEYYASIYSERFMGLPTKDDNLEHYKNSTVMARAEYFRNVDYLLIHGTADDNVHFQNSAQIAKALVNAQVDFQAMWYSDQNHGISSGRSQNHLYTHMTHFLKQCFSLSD
# B1: T1.02m: K&H bispecific: anti-mu FAP/mu IL-12 mut1, mu IgG2a DANG (seq18, seq19, seq21) (antibody)
# heavy: QVQLQQSGAELARPGASVNLSCKASGYTFTNNGINWLKQRTGQGLEWIGEIYPRSTNTLYNEKFKGKATLTADRSSNTAYMELRSLTSEDSAVYFCARTLTAPFAFWGQGTLVTVSAAKTTAPSVYPLAPVCGDTTGSSVTLGCLVKGYFPEPVTLTWNSGSLSSGVHTFPAVLQSDLYTLSSSVTVTSSTWPSQSITCNVAHPASSTKVDKKIEPRGPTIKPCPPCKCPAPNLLGGPSVFIFPPKIKDVLMISLSPIVTCVVVAVSEDDPDVQISWFVNNVEVHTAQTQTHREDYGSTLRVVSALPIQHQDWMSGKEFKCKVNNKDLPAPIERTISKPKGSVRAPQVYVLPPPEEEMTKKQVTLWCMVTDFMPEDIYVEWTNNGKTELNYKNTEPVLDSDGSYFMYSKLRVEKKNWVERNSYSCSVVHEGLHNHHTTKSFSRTPGK
# light: QIVLTQSPAIMSASPGEKVTMTCSASSGVNFMHWYQQKSGTSPKRWIFDTSKLASGVPARFSGSGSGTSYSLTISSMEAEDAATYYCQQWSFNPPTFGGGTKLEIKRADAAPTVSIFPPSSEQLTSGGASVVCFLNNFYPKDINVKWKIDGSERQNGVLNSWTDQDSKDSTYSMSSTLTLTKDEYERHNSYTCEATHKTSTSPIVKSFNRNEC
# chain: MWELEKDVYVVEVDWTPDAPGETVNLTCDTPEEDDITWTSDQRHGVIGSGKTLTITVKEFLDAGQYTCHKGGETLSHSHLLLHKKENGIWSTEILKNFKNKTFLKCEAPNYSGRFTCSWLVQRNMDLKFNIKSSSSSPDSRAVTCGMASLSAEKVTLDQRDYEKYSVSCQEDVTCPTAEETLPIELALEARQQNKYENYSTSFFIRDIIKPDPPKNLQMKPLKNSQVEVSWEYPDSWSTPHSYFSLKFFVRIQRAKEKMAETEEGCNQKGAFLVEKTSTEVQCKGGNVCVQAQDRYYNSSCSKWACVPCRVRSGGGGSGGGGSGGGGSRVIPVSGPARCLSQSRNLLKTTDDMVKTAREKLKHYSCTAEDIDHEDITRDQTSTLKTCLPLELHKNESCLATRETSSTTRGSCLPPQKTSLMMTLCLGSIYEDLKMYQTEFQAINAALQNHNHQQIILDKGMLVAIDELMQSLNHNGETLRQKPPVGEADPYRVKMKLCILLHAFSTRVVTINRVMGYLSSAGGGGSGGGGSEPRGPTIKPCPPCKCPAPNLLGGPSVFIFPPKIKDVLMISLSPIVTCVVVAVSEDDPDVQISWFVNNVEVHTAQTQTHREDYGSTLRVVSALPIQHQDWMSGKEFKCKVNNKDLPAPIERTISKPKGSVRAPQVYVLPPPEEEMTKKQVTLSCAVTDFMPEDIYVEWTNNGKTELNYKNTEPVLDSDGSYFMVSKLRVEKKNWVERNSYSCSVVHEGLHNHHTTKSFSRTPGK
# B2: T1.12m: K&H: anti-mu FAP/null, mu IgG2a DANG (seq18, seq19, seq29); used as control (antibody)
# heavy: B1 heavy
# light: B1 light
# chain: EPRGPTIKPCPPCKCPAPNLLGGPSVFIFPPKIKDVLMISLSPIVTCVVVAVSEDDPDVQISWFVNNVEVHTAQTQTHREDYGSTLRVVSALPIQHQDWMSGKEFKCKVNNKDLPAPIERTISKPKGSVRAPQVYVLPPPEEEMTKKQVTLSCAVTDFMPEDIYVEWTNNGKTELNYKNTEPVLDSDGSYFMVSKLRVEKKNWVERNSYSCSVVHEGLHNHHTTKSFSRTPGK
# Tests used:
# [1] = target: T1, recombinant mouse FAP; experiment: Surface plasmon resonance binding to recombinant mouse FAP; conditions: SPR, 2 μg/ml protein, FIGS. 13 and 14
# Protocol: The surface of the CM5 chip was activated with a 1:1 mixture of […] (N-hydroxysuccinimide) and […] (1-Ethyl-3-(3-dimethylaminopropyl) carbodiimide), and 25 μg/ml of anti-mouse IgG (Fc) antibody was immobilized for 400 seconds at a rate of 10 μl/min. The remaining active ester groups were blocked with 1 M ethanolamine. T1.01m, T1.02m and T1.03m were diluted to 2 μg/ml and reacted on the CM5 chip immobilized with the anti-mouse IgG (Fc) antibody. The recombinant mouse FAP was diluted to 200 nM in 1×HBS-EP+buffer solution and diluted by serial dilution. The diluted recombinant mouse FAP was reacted at a rate of 30 μl/min. The association and dissociation times were 180 seconds and 400 seconds, respectively. After the dissociation, stabilization was performed for 60 seconds, and then a regeneration was performed for 30 seconds with a 10 mM glycine pH 1.5 solution at a rate of 30 μl/min.
# [2] = test system: HEK-Blue IL-12 cells; experiment: Signaling ability in IL-12 recognizing cells (STAT4 inducible SEAP reporter); assay type: cell-based, human; conditions: serial dilution from 4 nM, 24 hours, FIG. 18
# Protocol: The HEK-Blue IL-12 cell line transformed with the IL-12 receptor gene and the STAT4 inducible SEAP reporter gene into HEK293 cells, which are human embryonic kidney fibroblasts, was obtained from Invivogen (San Diego, USA). The HEK-Blue IL-12 cells were maintained in DMEM (GIBCO) containing 10% FBS (GIBCO), 100 μg/ml Normocin and 1×HEK-Blue selection.
# Specifically, the HEK-Blue IL-12 cell line, which is an IL-12 recognizing cell, was diluted to 2.8×10^5 cells/ml and dispensed at 180 μl/well. Recombinant human IL-12, T1.01m, T1.02m, T1.03m and T1.12m were suspended at 4 nM and diluted by serial dilution. HEK-Blue IL-12 cells were treated with the diluted recombinant human IL-12, T1.01m, T1.02m, T1.03m and T1.12m. After 24 hours of treatment, the cell supernatant was collected and mixed with QUANTI-Blue Solution (Invivogen) in a 96-well plate. The reporter expression level was measured at 620 nm using a spectrophotometer (Thermo Fisher).
# [3] = test system: CT26 colorectal cancer with mouse FAP overexpressing NIH-3T3 cells; experiment: Tumor growth inhibition, CT26 co-injected with mouse FAP overexpressing NIH-3T3; assay type: in vivo, BALB/c mice; conditions: for tumor growth inhibitory ability compared to control: 14th day, control 50 μg T1.24m
# Protocol: Specifically, the mouse FAP overexpressing NIH-3T3 cells and the CT26 cells in culture were resuspended in Hanks' Balanced salt solution (HBSS, Gibco) at a concentration of 1×10^6 cells/50 μl, respectively, and the cells were mixed in a 1:1 ratio, and then 100 μl per each mouse was transplanted into the subcutaneous region of the right flank of 6-week-old BALB/c mice using a 1 cc syringe (25G) to obtain an FAP-expressing fibroblast co-injection animal model. The tumor size was measured using a digital vernier caliper by measuring the short axis and long axis of the tumor, and the tumor size was measured twice a week using the calculation formula of (short axis, mm) 2×(long axis, mm)×0.5.
# Next, for drug efficacy evaluation, when the size of the tumor reached 100 mm^3, the mice were randomly divided into groups. Each experimental group consisted of 10 animals, and as a control, each 100 μl of 50 μg of T1.24m was intraperitoneally administered three times at an interval of 3 days. In the test group, each 100 μl of 10 μg and 50 μg of T1.02m and 50 μg of T1.01m, respectively, were intraperitoneally administered three times at an interval of 3 days to evaluate the tumor growth inhibitory ability.
# [4] = test system: FAP-overexpressing CT26 cells; experiment: Tumor growth inhibition, FAP-overexpressing CT26 model, repeated i.p. dosing; assay type: in vivo, BALB/c mice; conditions: 18 days after administration, control 50 μg T1.24m
# Protocol: In order to prepare an mouse FAP-expressing tumor animal model, FAP overexpression was induced in CT26, a mouse colorectal cancer cell line. Specifically, the FAP-overexpressing CT26 cells in culture were resuspended in Hanks' Balanced salt solution (HBSS, Gibco), and then each 100 μl of 1×10^6 tumor cells per each mouse was transplanted into the subcutaneous region of the left dorsal side of 6-week-old BALB/c mice using a 1 cc syringe (25G) to obtain a mouse FAP-expressing colorectal cancer animal model. The tumor size was measured using a digital vernier caliper by measuring the short axis and long axis of the tumor, and the tumor size was measured twice a week using the calculation formula of (short axis, mm) 2×(long axis, mm)×0.5.
# Next, for drug efficacy evaluation, when the size of the tumor reached 100 mm^3, the mice were randomly divided into groups. Each experimental group consisted of 8 animals, and as a control, each 100 μl of 50 μg of T1.24m was intraperitoneally administered four times at an interval of 3 days. In the test group, each 100 μl of 10 μg and 100 μg of T1.01m, and 2 μg, 10 μg and 100 μg of T1.02m, respectively, were intraperitoneally administered four times at an interval of 3 days to evaluate the tumor growth inhibitory ability.
# [5] = test system: FAP-overexpressing mouse colorectal cancer CT26; experiment: Tumor growth inhibition by IL-12 mutation, FAP-overexpressing CT26, single i.v. dose; assay type: in vivo, BALB/c mice; conditions: 10 μg i.v. once, 15 days after administration, control PBS, FIG. 28
# Protocol: In order to evaluate the change in IL-12 activity according to the presence and extent of amino acid mutation, FAP-overexpressing mouse colorectal cancer CT26 was prepared by resuspending in PBS at a concentration of 5×10^5 cells/100 μl, and the tumor growth inhibitory ability was evaluated in a tumor animal model prepared by transplantation of the cells into 5-week-old female BALB/c mice.
# Specifically, when the size of the tumor in the model reached 100 mm^3, the mice were randomly divided into groups. 100 μl of phosphate buffered saline (PBS) was administered once via tail vein injection of the control, and each of T1.01m, T1.02m and T1.03m was intravenously administered once at a dose of 10 μg.
Molecule,Binding to recombinant mouse FAP [1],IL-12 recognition / STAT4 reporter gene expression (620 nm absorbance) [2],tumor growth inhibitory ability compared to control ([3]; 10 μg i.p. three times at an interval of 3 days) [%],tumor growth inhibitory ability compared to control ([3]; 50 μg i.p. three times at an interval of 3 days) [%],"complete response ([3]; 24th day after administration, FIG. 24)",tumor growth inhibitory ability compared to control ([4]; 2 μg i.p. four times at an interval of 3 days) [%],tumor growth inhibitory ability compared to control ([4]; 10 μg i.p. four times at an interval of 3 days) [%],tumor growth inhibitory ability compared to control ([4]; 100 μg i.p. four times at an interval of 3 days) [%],tumor growth inhibitory ability compared to the control [5]
B1,may bind to recombinant mouse FAP to specifically target FAP,"IL-12 was recognized, and STAT4 expressed a reporter gene by inducing phosphorylation",93.2,92.7,subjects in complete response were observed,80.1,90.5,89.8,excellent tumor growth inhibitory ability
B2,,did not recognize IL-12,,,,,,,
